Results on one molecule are retold here after patent US20240245800A1, “HIGHLY SPECIFIC RABBIT SINGLE -DOMAIN ANTIBODIES FOR DRUG DELIVERY IN IMMUNOTHERAPY APPLICATIONS” (TECHNOPHAGE, INVESTIGAÇÃO E DESENVOLVIMENTO EM …, priority 2021, published 2024).

Entries after “also recorded” stand apart in the source; their conditions may differ.

The test system of data set [1] is CLBL-1 cells. Put plainly: WST-1 cell viability assay on CLBL-1 cells. The format is cell-based, canine. To be noted: 48 h treatment. The procedure: (§1) FIG. 11—Cytotoxic effects of C5-DAB-SN-38. To determine the effect of C5-DAB-SN-38 on CLBL-1 and Jurkat cells, a cell viability assay was performed using the WST-1 reagent. 6×10^4 cells were seeded and treated with increasing amounts of compound. After 48 h treatment, cell viability was assessed. […] B) On the other hand, ADC had no effect on Jurkat cells, proving the specificity of the ADC. C5 was used as control. Best-fit EC50 values of each formulation were calculated using GraphPad Prism software (version 9.2.0, San Diego, CA, USA) using the log (inhibitor) vs response (variable slope) function. D) Effects of C5-DAB-SN-38 on DNA TopoI activity. To evaluate the effects of C5-DAB-SN-38 on DNA Topo I, we evaluated its activity using the Human Topoisomerase I Assay Kit. […]
(§2) To determine the effect of VL-DAB-SN-38 in CLBL-1 and Jurkat cell proliferation, a cell viability assay was performed using the Cell Proliferation Reagent WST-1 (Roche, Basel, Switzerland). […] After 48 h treatment, cell viability was assessed using WST-1, following the manufacturer's instructions. Absorbance at 450 nm was measured using the iMark microplate Reader (Bio-Rad). […] Best-fit EC50 values of each formulation were calculated using GraphPad Prism software (version 8.0, San Diego, CA, USA) using the log (inhibitor)) vs response (variable slope) function.
Background: Formazan colour is commonly taken as a measure of viable cells.

The next data set deals with CLBL-1 xenograft tumours. To be noted: mouse, in vivo.
In data set [2] the test system is Jurkat cells. Put plainly: WST-1 cell viability assay on Jurkat cells. The conditions noted are these: 48 h treatment. The format is cell-based, human. The procedure: as §1, §2
The test system of data set [3] is Jurkat cells. The data set is described as follows: Flow cytometry binding of C5 VL sdAb to Jurkat cells. The format is cell-based, human. The procedure:
(§3) FIG. 8. Binding and internalization characterization of C5 VL sdAb. C5 binding and internalization properties against CLBL-1 cells were evaluated by cytometry and immunofluorescence. A) For flow cytometry analysis, 1×10^6 of CLBL-1 cells were incubated with Live/Dead reagents for 30 minutes. Then, 3 μM of C5 were incubated with the cells for different timepoints at 37° C. After, cells were washed, fixed, permeabilized, and incubated for 30 min with anti-HA antibody, washed twice and incubated with anti-rat Alexa Fluor-488. […] B) By contrast, no binding of C5 was detected with Jurkat cells. C) To confirm the binding of C5 to the CLBL-1 verified by flow cytometry, we evaluated its distribution on the cells by immunofluorescence assay. […] Representative microphotographs with C5 (green) and DAPI stained-nuclei (blue) are shown.
The C5 VL sdAb binding and cellular internalization properties towards CLBL-1 cells were studied by cytometry analysis and immunofluorescence. […] Live/dead reagent was used to exclude dead cells and the background noise was also evaluated in the control with the secondary antibody (data not shown). To better characterize the binding of the C5 to the CLBL-1 cells, we further evaluated the internalization of the C5 sdAb on the cells using an immunofluorescence assay. […]

The subject of data set [4] is CLBL-1 cells. The data set is described as follows: Immunofluorescence binding/internalization of C5 in CLBL-1 cells. The format is cell-based, canine. To be noted: 5 μM, 90 minutes at 37° C. As to the method:
as §3
1.5×10^5 of CLBL-1 cells were plated on ibidi μ-Slide 8 Well Glass Bottom (#80827, Ibidi, Germany) and incubated for 24 h at 37° C. in a humidified atmosphere of 5% CO2. Then, 5 μM of VL was added to the cells and incubated for 90 minutes at 37° C. […] In the Airyscan acquisition mode, ×1.80 zoom images were recorded at 1024×1024 resolution. […]

Experimental for CLBL-1 xenograft tumours: C5 was radiolabelled with ^99mTc(CO)3(H2O)3 and intravenously injected in the tail vein of a xenograft mice model of cNHL. Mice were sacrificed at 15 min and 3 h and the radioactivity of each organ was measured. The activity in each organ was calculated and expressed as a percentage of injected radioactivity dose per gram of organ or tissue (% ID/g).
Radiochemical purity (RP) was checked by Reversed-phase high-performance liquid chromatography (RP-HPLC) and instant thin-layer chromatography silica gel (ITLC-SG, Agilent Technologies, USA). […] Radioactivity distribution on the ITLC-SG strip was evaluated using a miniGita Star scanning device (Elysia-Raytest, (Germany) coupled with a Gamma BGO-V-Detector (Elysia Raytest). For purification and concentration of the ^99mTc-labeled sdAb, a 3 K Amicon (Merck Milipore) was used. ^99mTc(CO)3—C5 diluted in PBS was used for the biodistribution studies after RP determination by ITLC-SG. For that, mice were intravenously injected in the tail vein with 100 μl of ^99mTc(CO)3—C5 and sacrificed by cervical dislocation at 15 min, and 3 h after injection. Radioactivity was measured using a dose calibrator (Carpintec CRC-15W). After the removal of the tumour and tissues of interest, their radioactivity was measured using a γ-counter (Berthold, Germany). […]

B1: C5: rabbit derived anti-cNHL VL sdAb clone, SEQ. ID. 3; ^99mTc radiolabelled for biodistribution (antibody, listed as Oryctolagus cuniculus, V domains shown)
VL: ELDLTQTPSPVSASVGGTATINCQASQSVYNNYWWAWYQQRPGHPPKLLIYETSKLASGVPSRFKGSGSGTQFTLTIIDVQCDDAATYVCAGGYGTVIDNAFGGGTELEIL
modifications: 99mTc(CO)3 radiolabel
notes: ID; ^99mTc radiolabelled for biodistribution
Turning to B1, the “effect on CLBL-1 (cNHL) cell viability/proliferation” value in the data set with CLBL-1 cells [1] is “does not affect cell proliferation”. The “elimination from blood and major organs” value in the data set with CLBL-1 xenograft tumours was “fast elimination”. In addition, in the data set with Jurkat cells [2], the “effect on Jurkat cell viability/proliferation” value is given as “does not affect cell proliferation”. Further, the “binding to Jurkat cells (flow cytometry)” value in the data set on Jurkat cells [3] was “no binding interaction”. For the same molecule, the “distribution/internalization in CLBL-1 cells (immunofluorescence)” value is given as “internalization into the cytoplasm; also recorded: high density of Alexa Fluor-488 labelled C5 labelled in the perinuclear region” with CLBL-1 cells [4] and “internalization into the cytoplasm” in the data set on CLBL-1 cells [4] (listed as VL C5).
